Test results: US20210128683A1 (RISE BIOPHARMACEUTICALS, published 2021)

Key:
[1] = target: T1, CXCR1 (UniProt P25024 1-350, limits assumed); assay: indirect ELISA, ONCO P8-CXCR1 complex formation
T1 construct: also called IL-8R
T1 sequence (looked up): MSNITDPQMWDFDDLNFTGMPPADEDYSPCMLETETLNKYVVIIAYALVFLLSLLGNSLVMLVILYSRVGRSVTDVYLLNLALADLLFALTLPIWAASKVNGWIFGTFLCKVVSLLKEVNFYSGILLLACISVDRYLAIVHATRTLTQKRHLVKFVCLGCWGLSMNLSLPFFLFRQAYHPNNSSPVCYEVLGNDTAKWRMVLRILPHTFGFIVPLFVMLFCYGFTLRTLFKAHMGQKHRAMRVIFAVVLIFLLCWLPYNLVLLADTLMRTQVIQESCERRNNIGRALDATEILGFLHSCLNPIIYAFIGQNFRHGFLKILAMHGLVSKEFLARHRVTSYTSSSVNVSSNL
Source text: The Kd Equation include: (1) i=A_{450 nm}/A^max_{450 nm}, then i=Ligand/Ligand^max; (2) 1/(1−i)=(Ligₜₒₜ/i)/Kd−b, b=fqSrec/Kd.

[2] = target: T2, CXCR2 (UniProt P25025 1-360, limits assumed); assay: indirect ELISA, ONCO P8-CXCR2 complex formation
T2 construct: also called IL-8R
T2 sequence (looked up): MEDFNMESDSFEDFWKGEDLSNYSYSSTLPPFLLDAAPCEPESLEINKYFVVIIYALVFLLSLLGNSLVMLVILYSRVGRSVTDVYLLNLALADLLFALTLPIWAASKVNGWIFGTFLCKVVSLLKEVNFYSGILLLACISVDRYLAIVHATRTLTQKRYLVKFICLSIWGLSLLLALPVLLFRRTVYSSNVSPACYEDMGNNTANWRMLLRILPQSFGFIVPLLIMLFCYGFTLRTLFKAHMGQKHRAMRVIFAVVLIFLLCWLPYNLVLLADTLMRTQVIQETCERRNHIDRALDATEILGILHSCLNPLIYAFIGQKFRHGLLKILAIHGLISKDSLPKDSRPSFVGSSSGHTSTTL

Kd [1]: 0.286 µM
Kd [2]: 0.139 µM
B1: ONCO P-8 (peptide)
chain: GSKELRCQCIRSYSKPFHPKFIKELRVIPASQFCANTEIIVKLSDGRELCLDPKENWVQRVVEKFLKRAENS
notes: Designed analogue of CXCL8 (IL-8), described as an antagonist of CXCR1 and CXCR2; also called chemokine receptor antagonistic modified peptide
